Experimental data as given in the supplement of paper PMC10567573.

B1: TRIM63 (parent)
chain: ANPYWTSRGSSVSMSGGRFRCPTC
B2: TOR1AIP2 (parent)
chain: YTSSQKVSPIQIDGAGRTWQDSDT

Variants of: B1
Experiment: protein stability index of a GFP-peptide fusion (GPS, HEK-293T) (PSI 1-6); higher = more stable
Settings: c terminus: a fixed tail appended
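Also: lentivirally expressed fusions sorted by FACS into six bins by GFP to DsRed ratio, PSI derived from sequencing read proportions per bin multiplied by bin number.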

Protein stability index of substitutions, site by site:
F19: H 2.12; R 2.51; Y 2.04; G 3.02; N 2.24; I 2.34; M 2.79; A 2.04; E 3.29; T 2.94; S 3.07; C 3.67; D 2.75; Q 2.19; P 2.25
G17: W 1.49; R 2.65; Q 2.07; A 1.84; S 2.26; E 1.7; M 2.73; T 1.17; H 1.53; N 1.75; C 1.98; V 2.77; L 1.81; F 1.72; D 1.43; P 1.76; I 2.27
C21: R 2.77; K 2.97; E 3.46; L 2.32; V 1.9; F 1.76; G 2.86; M 3.26; W 1.71; Y 2.15; N 2.77; I 2.67; T 2.23; P 2.72
T23: L 2.58; Y 1.75; D 1.71; P 2.26; W 2.47; N 2.03; A 1.87; K 3.23; S 2.52; Q 1.95; M 2.44; R 2.43; H 2.28; G 3.11; V 1.34; E 1.69; F 1.45
S10: L 1.46; M 1.84; W 3.35; A 1.68; P 1.75; K 1.65; H 2.44; C 2.18; F 2.56; Q 2.83; T 2.24; E 1.76; Y 1.57; V 1.72
C24: T 2.69; F 2.55; E 3.19; R 4.13; S 2.88; M 2.07; Q 2.12; I 2.05; P 3.22; G 3.18; K 2.84; V 2.3; D 3.73; H 2.29; Y 3.28; N 2.66
G16: Y 2.24; D 2.23; T 1.96; F 1.32; E 1.58; Q 1.7; A 1.72; V 1.3; W 1.8; M 1.83; R 1.05; H 2.42; P 2.08; N 1.34; K 2.1; C 1.91
V12: S 2.46; P 2.78; H 1.98; Y 1.69; T 2.9; I 2.46; E 2.16; W 2.87; F 1.64; L 1.29; D 1.67; A 1.49; G 2.1; K 2.19; M 1.63; R 1.32; N 2.03
S11: P 2.14; K 1.29; L 1.1; D 2.08; A 2.3; Q 2.55; V 2.21; F 2.15; M 1.63; N 2.32; H 2.68; E 1.76; I 3.32; T 2.18; Y 1.8; C 1.88
R20: C 2.12; P 2.4; D 2.79; W 2.43; K 2.61; N 1.57; L 1.51; V 2.13; F 1.27; A 2.38; E 1.74; I 1.91; T 1.78; G 1.82; H 1.85; Q 1.84; M 2.12; S 2.32; Y 1.96
S13: V 1.89; A 1.9; L 2.07; H 1.9; F 1.93; W 1.79; Y 2.18; C 2.02; K 2.39; P 2.21; G 3.37; R 1.52; Q 2.13; D 2.06; I 1.58; T 1.83; N 2.18; E 2.98
P22: R 2.12; D 2.22; H 2.39; N 2.5; C 1.89; S 2.19; K 1.98; Q 2.87; M 1.97; T 2.69; L 1.24; V 2.56; F 2.97; I 2.75
M14: N 2.03; G 1.83; S 2.32; L 2.21; F 2.04; P 2.64; K 1.85; V 1.86; H 2.21; Q 1.41
R8: K 1.95; H 1.41; Y 1.71; P 1.55; N 1.92; V 1.95; A 1.85; S 1.65; L 2.33; M 1.39; C 1.23; G 1.55; T 1.8; Q 1.99; E 3.19; F 1.27; D 1.91; I 1.4
R18: C 1.4; V 1.08; P 1.65; N 2.24; M 2.49; I 1.37; A 1.89; F 1.46; K 1.44; Q 1.32; E 2.48; T 2.14; D 2.16; G 1.44
S7: M 2.53; A 2.41; L 1.6; N 1.37; Q 2.29; W 2.62; Y 1.54; E 1.28; P 1.27; V 1.93; D 2.38; I 3.16; T 1.58; F 2.07; H 1.45
W5: F 1.41; S 1.9; H 2.17; C 1.6; L 1.73; V 2.59; Q 2.62; A 1.92; Y 1.7; E 2.25; G 2.45; M 2.16; N 2.44; P 2.44; D 2.19; T 1.76
Y4: S 1.65; T 2.17; W 2.18; R 1.47; N 2.34; M 1.75; Q 1.69; V 1.56
S15: Y 1.57; N 1.01; I 1.4; L 2.03; F 2.61; D 2.3; W 1.8; C 2.02; T 1.43; Q 2.58; H 1.87; A 2.94; P 2.09; E 2.1
G9: W 1.43; R 2.15; K 1.98; E 1.6; S 1.9; V 1.91; A 1.7; P 1.76; Y 2.32; H 1.31; I 1.39; L 1.56; M 1.39; D 1.94; Q 1.3; N 2.13; F 1.92
T6: Q 3.06; S 1.45; K 1.56; I 1.84; W 1.48; C 1.58; Y 1.69; A 2.1; N 1.74; D 1.83; H 2.12; R 2.2; E 1.51; P 1.66; M 2.24; G 2.44

Variants of: B2
Experiment: as above
Settings: c terminus: a fixed tail appended

Protein stability index: each site, then its substitutions
Y1: A 3.7; I 4.3; D 4.85; L 4.06; F 3.02; Q 4.64; H 5.19; M 5.05; C 4.22; E 5.31; K 4.86; P 4.4; N 4.87
